Publication PMC10952621

Tests used:
[1] = molecular target: LQTS-associated calmodulin variant N97I (human); assay: ITC; peptide titrated into CaM (~50 uM) in the cell; 50 mM Na-HEPES, 100 mM KCl, 2 mM MgCl2, pH 7.5, 1 mM EGTA (Ca2+-free); 25 °C; one-site binding model
[2] = molecular target: LQTS-associated calmodulin variant D95V (human); assay: as above
[3] = molecular target: LQTS-associated calmodulin variant D131H (human); assay: as above
[4] = molecular target: LQTS-associated calmodulin variant N97I (human); assay: ITC; Kv7.1-HB peptide titrated into CaM (~50 uM) in the cell; 50 mM Na-HEPES, 100 mM KCl, 2 mM MgCl2, pH 7.5, 5 mM CaCl2; 25 °C; two-site binding model
[5] = molecular target: LQTS-associated calmodulin variant D95V (human); assay: as above
[6] = molecular target: LQTS-associated calmodulin variant D131H (human); assay: as above

Kd [1]: 2400 nM
dH [1]: 4.7 kcal/mol
stoichiometry N [1]: 0.8 sites
Kd [2]: 3900 nM
dH [2]: 5.8 kcal/mol
stoichiometry N [2]: 0.9 sites
dH [3]: 3.3 kcal/mol
stoichiometry N [3]: 0.9 sites
KD, first binding event [4]: 4.7 nM
KD, second binding event [4]: 775 nM
N, first binding event [4]: 1.1 sites
N, second binding event [4]: 1.1 sites
dH, first binding event [4]: -12.9 kcal/mol
dH, second binding event [4]: -11.5 kcal/mol
KD, first binding event [5]: 6.9 nM
KD, second binding event [5]: 725 nM
N, first binding event [5]: 0.8 sites
N, second binding event [5]: 0.8 sites
dH, first binding event [5]: -13.2 kcal/mol
dH, second binding event [5]: -14.9 kcal/mol
KD, first binding event [6]: 9.7 nM
KD, second binding event [6]: 908 nM
N, first binding event [6]: 0.8 sites
N, second binding event [6]: 1.4 sites
dH, first binding event [6]: -14.3 kcal/mol
dH, second binding event [6]: -15.5 kcal/mol
Substance: Kv7.1-HB(507-536) peptide, helix B of the KCNQ1 C-terminus
